K0.5 (apparent microtubule dissociation constant) data for one substance are collected here from paper PMC4383081.

For this assay, the target named is microtubules polymerised from bovine brain tubulin (taxol-stabilised) (bovine) (UniProt Q6B856). The experiment in a line: stopped-flow mant-ADP release kinetics; kinesin·mant-ADP (1:1) mixed with varying microtubule concentrations plus MgATP, 298 K; fitted rate constants against microtubule concentration; apparent.

In the case of “N255K point mutant of the human monomeric kinesin K349 construct (from UniProt P33176 1-349) (domain or fragment)”, the K0.5 (apparent microtubule dissociation constant) was found to be 21.3 µM.
